In ChEMBL document CHEMBL4414660, “Effect of Modifier Structure on the Activation of Leukotriene A4 Hydrolase Aminopeptidase Activity” (J Med Chem, 2019):

Columns and labels:
[1] = molecular target: T1, Leukotriene A-4 hydrolase (Homo sapiens, UniProt P09960); assay: (§1) Activation of N-terminal (His)6 and Xpress-tagged LTA4H (unknown origin) expressed in Escherichia coli BL21(DE3) cells assessed as increase in aminopeptidase activity by measuring p-nitroanilide release using L-Alanine-p-nitroanilide incubated for 10 mins by UV plate reader based assay
T1 sequence (P09960 whole entry): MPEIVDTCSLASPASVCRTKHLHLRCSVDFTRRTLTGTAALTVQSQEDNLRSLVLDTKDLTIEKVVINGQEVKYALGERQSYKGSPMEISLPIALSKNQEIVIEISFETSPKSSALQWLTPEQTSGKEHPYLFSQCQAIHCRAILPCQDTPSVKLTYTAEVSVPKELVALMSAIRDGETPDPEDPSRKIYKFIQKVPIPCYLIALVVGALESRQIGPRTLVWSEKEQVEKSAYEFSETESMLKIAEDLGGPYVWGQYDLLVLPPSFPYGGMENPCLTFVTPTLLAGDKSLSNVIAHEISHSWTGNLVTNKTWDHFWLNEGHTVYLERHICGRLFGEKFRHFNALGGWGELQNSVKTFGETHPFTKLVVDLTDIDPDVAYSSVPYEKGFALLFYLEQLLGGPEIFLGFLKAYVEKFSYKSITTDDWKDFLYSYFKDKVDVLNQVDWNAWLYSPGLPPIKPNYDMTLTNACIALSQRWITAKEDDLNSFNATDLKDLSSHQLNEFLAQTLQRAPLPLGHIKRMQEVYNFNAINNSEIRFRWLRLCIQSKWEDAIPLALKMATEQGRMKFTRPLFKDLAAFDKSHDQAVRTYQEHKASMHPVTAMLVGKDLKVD

[2] = compound: Cc1ccc(Cc2ccc(-c3csc(N)n3)cc2)cc1; assay: as §1, with “measuring Kcat/Km ratio for” for “measuring”, “release at 10 uM” for “release”; conditions: Homo sapiens
[3] = compound: COc1ccc(Cc2ccc(-c3csc(N)n3)cc2)cc1; assay: as above; conditions: Homo sapiens
[4] = compound: Nc1nc(-c2ccc(Cc3ccccc3)cc2)cs1; assay: as above; conditions: Homo sapiens
[5] = compound: Nc1nc(-c2ccc(Cc3ccc(C(F)(F)F)cc3)cc2)cs1; assay: as above; conditions: Homo sapiens
[6] = compound: COc1ccc(Cc2ccccc2)cc1; assay: as above; conditions: Homo sapiens
[7] = compound: Cc1ccc(Cc2ccc(-c3csc(N)n3)cc2)cc1; assay: as §1, with “measuring Kcat for” for “measuring”, “release at 0.5 uM” for “release”; conditions: Homo sapiens
[8] = compound: COc1ccc(Cc2ccc(-c3csc(N)n3)cc2)cc1; assay: as above; conditions: Homo sapiens
[9] = compound: Nc1nc(-c2ccc(Cc3ccccc3)cc2)cs1; assay: as above; conditions: Homo sapiens
[10] = compound: Nc1nc(-c2ccc(Cc3ccc(C(F)(F)F)cc3)cc2)cs1; assay: as above; conditions: Homo sapiens
[11] = compound: COc1ccc(Cc2ccccc2)cc1; assay: as above; conditions: Homo sapiens
[12] = compound: Cc1ccc(Cc2ccc(-c3csc(N)n3)cc2)cc1; assay: as §1, with “measuring Kcat/Km ratio for” for “measuring”, “release at 1 uM” for “release”; conditions: Homo sapiens
[13] = compound: COc1ccc(Cc2ccc(-c3csc(N)n3)cc2)cc1; assay: as above; conditions: Homo sapiens
[14] = compound: Nc1nc(-c2ccc(Cc3ccccc3)cc2)cs1; assay: as above; conditions: Homo sapiens
[15] = compound: Nc1nc(-c2ccc(Cc3ccc(C(F)(F)F)cc3)cc2)cs1; assay: as above; conditions: Homo sapiens
[16] = compound: COc1ccc(Cc2ccccc2)cc1; assay: as above; conditions: Homo sapiens
[17] = compound: Cc1ccc(Cc2ccc(-c3csc(N)n3)cc2)cc1; assay: as §1, with “measuring Km for” for “measuring”, “release at 0.1 uM” for “release”; conditions: Homo sapiens
[18] = compound: COc1ccc(Cc2ccc(-c3csc(N)n3)cc2)cc1; assay: as above; conditions: Homo sapiens
[19] = compound: Nc1nc(-c2ccc(Cc3ccccc3)cc2)cs1; assay: as above; conditions: Homo sapiens
[20] = compound: Nc1nc(-c2ccc(Cc3ccc(C(F)(F)F)cc3)cc2)cs1; assay: as above; conditions: Homo sapiens
[21] = compound: COc1ccc(Cc2ccccc2)cc1; assay: as above; conditions: Homo sapiens
[22] = compound: Cc1ccc(Cc2ccc(-c3csc(N)n3)cc2)cc1; assay: as §1, with “measuring Kcat for” for “measuring”, “release at 5 uM” for “release”; conditions: Homo sapiens
[23] = compound: COc1ccc(Cc2ccc(-c3csc(N)n3)cc2)cc1; assay: as above; conditions: Homo sapiens
[24] = compound: Nc1nc(-c2ccc(Cc3ccccc3)cc2)cs1; assay: as above; conditions: Homo sapiens
[25] = compound: Nc1nc(-c2ccc(Cc3ccc(C(F)(F)F)cc3)cc2)cs1; assay: as above; conditions: Homo sapiens
[26] = compound: COc1ccc(Cc2ccccc2)cc1; assay: as above; conditions: Homo sapiens
[27] = compound: Cc1ccc(Cc2ccc(-c3csc(N)n3)cc2)cc1; assay: as §1, with “measuring Km for” for “measuring”, “release at 0.5 uM” for “release”; conditions: Homo sapiens
[28] = compound: COc1ccc(Cc2ccc(-c3csc(N)n3)cc2)cc1; assay: as above; conditions: Homo sapiens
[29] = compound: Nc1nc(-c2ccc(Cc3ccccc3)cc2)cs1; assay: as above; conditions: Homo sapiens
[30] = compound: Nc1nc(-c2ccc(Cc3ccc(C(F)(F)F)cc3)cc2)cs1; assay: as above; conditions: Homo sapiens
[31] = compound: COc1ccc(Cc2ccccc2)cc1; assay: as above; conditions: Homo sapiens
[32] = compound: Cc1ccc(Cc2ccc(-c3csc(N)n3)cc2)cc1; assay: as §1, with “measuring Km for” for “measuring”, “release at 10 uM” for “release”; conditions: Homo sapiens
[33] = compound: COc1ccc(Cc2ccc(-c3csc(N)n3)cc2)cc1; assay: as above; conditions: Homo sapiens
[34] = compound: Nc1nc(-c2ccc(Cc3ccccc3)cc2)cs1; assay: as above; conditions: Homo sapiens
[35] = compound: Nc1nc(-c2ccc(Cc3ccc(C(F)(F)F)cc3)cc2)cs1; assay: as above; conditions: Homo sapiens
[36] = compound: COc1ccc(Cc2ccccc2)cc1; assay: as above; conditions: Homo sapiens
[37] = compound: Cc1ccc(Cc2ccc(-c3csc(N)n3)cc2)cc1; assay: as §1, with “measuring Kcat/Km ratio for” for “measuring”, “release at 5 uM” for “release”; conditions: Homo sapiens
[38] = compound: COc1ccc(Cc2ccc(-c3csc(N)n3)cc2)cc1; assay: as above; conditions: Homo sapiens
[39] = compound: Nc1nc(-c2ccc(Cc3ccccc3)cc2)cs1; assay: as above; conditions: Homo sapiens
[40] = compound: Nc1nc(-c2ccc(Cc3ccc(C(F)(F)F)cc3)cc2)cs1; assay: as above; conditions: Homo sapiens
[41] = compound: COc1ccc(Cc2ccccc2)cc1; assay: as above; conditions: Homo sapiens
[42] = compound: Cc1ccc(Cc2ccc(-c3csc(N)n3)cc2)cc1; assay: as §1, with “measuring Kcat for” for “measuring”, “release at 0.1 uM” for “release”; conditions: Homo sapiens
[43] = compound: COc1ccc(Cc2ccc(-c3csc(N)n3)cc2)cc1; assay: as above; conditions: Homo sapiens
[44] = compound: Nc1nc(-c2ccc(Cc3ccccc3)cc2)cs1; assay: as above; conditions: Homo sapiens
[45] = compound: Nc1nc(-c2ccc(Cc3ccc(C(F)(F)F)cc3)cc2)cs1; assay: as above; conditions: Homo sapiens
[46] = compound: COc1ccc(Cc2ccccc2)cc1; assay: as above; conditions: Homo sapiens
[47] = compound: Cc1ccc(Cc2ccc(-c3csc(N)n3)cc2)cc1; assay: as §1, with “measuring Kcat/Km ratio for” for “measuring”, “release at 0.5 uM” for “release”; conditions: Homo sapiens
[48] = compound: COc1ccc(Cc2ccc(-c3csc(N)n3)cc2)cc1; assay: as above; conditions: Homo sapiens
[49] = compound: Nc1nc(-c2ccc(Cc3ccccc3)cc2)cs1; assay: as above; conditions: Homo sapiens
[50] = compound: Nc1nc(-c2ccc(Cc3ccc(C(F)(F)F)cc3)cc2)cs1; assay: as above; conditions: Homo sapiens
[51] = compound: COc1ccc(Cc2ccccc2)cc1; assay: as above; conditions: Homo sapiens
[52] = compound: Cc1ccc(Cc2ccc(-c3csc(N)n3)cc2)cc1; assay: as §1, with “measuring Km for” for “measuring”, “release at 5 uM” for “release”; conditions: Homo sapiens
[53] = compound: COc1ccc(Cc2ccc(-c3csc(N)n3)cc2)cc1; assay: as above; conditions: Homo sapiens
[54] = compound: Nc1nc(-c2ccc(Cc3ccccc3)cc2)cs1; assay: as above; conditions: Homo sapiens
[55] = compound: Nc1nc(-c2ccc(Cc3ccc(C(F)(F)F)cc3)cc2)cs1; assay: as above; conditions: Homo sapiens
[56] = compound: COc1ccc(Cc2ccccc2)cc1; assay: as above; conditions: Homo sapiens
[57] = compound: Cc1ccc(Cc2ccc(-c3csc(N)n3)cc2)cc1; assay: as §1, with “measuring Kcat/Km ratio for” for “measuring”, “release at 0.1 uM” for “release”; conditions: Homo sapiens
[58] = compound: COc1ccc(Cc2ccc(-c3csc(N)n3)cc2)cc1; assay: as above; conditions: Homo sapiens
[59] = compound: Nc1nc(-c2ccc(Cc3ccccc3)cc2)cs1; assay: as above; conditions: Homo sapiens
[60] = compound: Nc1nc(-c2ccc(Cc3ccc(C(F)(F)F)cc3)cc2)cs1; assay: as above; conditions: Homo sapiens
[61] = compound: COc1ccc(Cc2ccccc2)cc1; assay: as above; conditions: Homo sapiens
[62] = compound: Cc1ccc(Cc2ccc(-c3csc(N)n3)cc2)cc1; assay: as §1, with “measuring Km for” for “measuring”, “release at 1 uM” for “release”; conditions: Homo sapiens
[63] = compound: COc1ccc(Cc2ccc(-c3csc(N)n3)cc2)cc1; assay: as above; conditions: Homo sapiens
[64] = compound: Nc1nc(-c2ccc(Cc3ccccc3)cc2)cs1; assay: as above; conditions: Homo sapiens
[65] = compound: Nc1nc(-c2ccc(Cc3ccc(C(F)(F)F)cc3)cc2)cs1; assay: as above; conditions: Homo sapiens
[66] = compound: COc1ccc(Cc2ccccc2)cc1; assay: as above; conditions: Homo sapiens
[67] = compound: Cc1ccc(Cc2ccc(-c3csc(N)n3)cc2)cc1; assay: as §1, with “measuring Kcat for” for “measuring”, “release at 10 uM” for “release”; conditions: Homo sapiens
[68] = compound: COc1ccc(Cc2ccc(-c3csc(N)n3)cc2)cc1; assay: as above; conditions: Homo sapiens
[69] = compound: Nc1nc(-c2ccc(Cc3ccccc3)cc2)cs1; assay: as above; conditions: Homo sapiens
[70] = compound: Nc1nc(-c2ccc(Cc3ccc(C(F)(F)F)cc3)cc2)cs1; assay: as above; conditions: Homo sapiens
[71] = compound: COc1ccc(Cc2ccccc2)cc1; assay: as above; conditions: Homo sapiens
[72] = compound: Cc1ccc(Cc2ccc(-c3csc(N)n3)cc2)cc1; assay: as §1, with “measuring Kcat for” for “measuring”, “release at 1 uM” for “release”; conditions: Homo sapiens
[73] = compound: COc1ccc(Cc2ccc(-c3csc(N)n3)cc2)cc1; assay: as above; conditions: Homo sapiens
[74] = compound: Nc1nc(-c2ccc(Cc3ccccc3)cc2)cs1; assay: as above; conditions: Homo sapiens
[75] = compound: Nc1nc(-c2ccc(Cc3ccc(C(F)(F)F)cc3)cc2)cs1; assay: as above; conditions: Homo sapiens
[76] = compound: COc1ccc(Cc2ccccc2)cc1; assay: as above; conditions: Homo sapiens

## Nc1nc(-c2ccc(Cc3cccc(C(F)(F)F)c3)cc2)cs1
[1]
  AC50: 69 µM

B1: Leukotriene A-4 hydrolase (Homo sapiens), P09960 (protein)
chain: T1 sequence (P09960 whole entry)
[2]
  kcat/Km: 11.4 mM⁻¹ s⁻¹
[3]
  kcat/Km: 6.68 mM⁻¹ s⁻¹
[4]
  kcat/Km: 9.81 mM⁻¹ s⁻¹
[5]
  kcat/Km: 2.3 mM⁻¹ s⁻¹
[6]
  kcat/Km: 17.3 mM⁻¹ s⁻¹
[7]
  kcat: 31.3 s⁻¹
[8]
  kcat: 25.9 s⁻¹
[9]
  kcat: 21.1 s⁻¹
[10]
  kcat: 5.09 s⁻¹
[11]
  kcat: 5.54 s⁻¹
[12]
  kcat/Km: 11.3 mM⁻¹ s⁻¹
[13]
  kcat/Km: 6.74 mM⁻¹ s⁻¹
[14]
  kcat/Km: 7.89 mM⁻¹ s⁻¹
[15]
  kcat/Km: 1.39 mM⁻¹ s⁻¹
[16]
  kcat/Km: 8.46 mM⁻¹ s⁻¹
[17]
  Km: 3.3 mM
[18]
  Km: 2050 µM
[19]
  Km: 2170 µM
[20]
  Km: 2270 µM
[21]
  Km: 980 µM
[22]
  kcat: 34.3 s⁻¹
[23]
  kcat: 45.2 s⁻¹
[24]
  kcat: 42.2 s⁻¹
[25]
  kcat: 20.9 s⁻¹
[26]
  kcat: 23.9 s⁻¹
[27]
  Km: 3.11 mM
[28]
  Km: 4.18 mM
[29]
  Km: 2990 µM
[30]
  Km: 4.21 mM
[31]
  Km: 910 µM
[32]
  Km: 3.12 mM
[33]
  Km: 6.6 mM
[34]
  Km: 4.03 mM
[35]
  Km: 10.1 mM
[36]
  Km: 1750 µM
[37]
  kcat/Km: 11.7 mM⁻¹ s⁻¹
[38]
  kcat/Km: 6.68 mM⁻¹ s⁻¹
[39]
  kcat/Km: 8.94 mM⁻¹ s⁻¹
[40]
  kcat/Km: 2.03 mM⁻¹ s⁻¹
[41]
  kcat/Km: 15.7 mM⁻¹ s⁻¹
[42]
  kcat: 21.1 s⁻¹
[43]
  kcat: 9.98 s⁻¹
[44]
  kcat: 9.63 s⁻¹
[45]
  kcat: 1.91 s⁻¹
[46]
  kcat: 3.01 s⁻¹
[47]
  kcat/Km: 10.1 mM⁻¹ s⁻¹
[48]
  kcat/Km: 6.18 mM⁻¹ s⁻¹
[49]
  kcat/Km: 7.07 mM⁻¹ s⁻¹
[50]
  kcat/Km: 1.21 mM⁻¹ s⁻¹
[51]
  kcat/Km: 6.06 mM⁻¹ s⁻¹
[52]
  Km: 2920 µM
[53]
  Km: 6.77 mM
[54]
  Km: 4.72 mM
[55]
  Km: 10.3 mM
[56]
  Km: 1520 µM
[57]
  kcat/Km: 6.38 mM⁻¹ s⁻¹
[58]
  kcat/Km: 4.87 mM⁻¹ s⁻¹
[59]
  kcat/Km: 4.44 mM⁻¹ s⁻¹
[60]
  kcat/Km: 0.84 mM⁻¹ s⁻¹
[61]
  kcat/Km: 3.07 mM⁻¹ s⁻¹
[62]
  Km: 2870 µM
[63]
  Km: 4.75 mM
[64]
  Km: 4.04 mM
[65]
  Km: 5.94 mM
[66]
  Km: 1030 µM
[67]
  kcat: 35.6 s⁻¹
[68]
  kcat: 44.1 s⁻¹
[69]
  kcat: 39.6 s⁻¹
[70]
  kcat: 23.2 s⁻¹
[71]
  kcat: 30.3 s⁻¹
[72]
  kcat: 32.5 s⁻¹
[73]
  kcat: 32 s⁻¹
[74]
  kcat: 31.9 s⁻¹
[75]
  kcat: 8.23 s⁻¹
[76]
  kcat: 8.68 s⁻¹
